The source of these data is patent US20240190962A1.

The experiment concerns the target human IL-2 receptor (IL-2Rα, IL-2Rβ, IL-2Rγ) (human) (UniProt P01589). In words: cell-based or functional assay.

Sequence of human IL-2 receptor (IL-2Rα, IL-2Rβ, IL-2Rγ) (human) (P01589 22-272, chain 1 of 3): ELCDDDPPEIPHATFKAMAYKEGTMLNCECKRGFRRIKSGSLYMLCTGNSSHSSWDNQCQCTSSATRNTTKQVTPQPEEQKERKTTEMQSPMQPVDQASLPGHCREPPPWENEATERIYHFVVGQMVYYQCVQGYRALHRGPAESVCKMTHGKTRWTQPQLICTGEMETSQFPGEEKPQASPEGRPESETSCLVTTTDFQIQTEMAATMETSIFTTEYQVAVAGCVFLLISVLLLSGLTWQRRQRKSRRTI
Sequence of human IL-2 receptor (IL-2Rα, IL-2Rβ, IL-2Rγ) (human) (P14784 27-551, chain 2 of 3, further chain): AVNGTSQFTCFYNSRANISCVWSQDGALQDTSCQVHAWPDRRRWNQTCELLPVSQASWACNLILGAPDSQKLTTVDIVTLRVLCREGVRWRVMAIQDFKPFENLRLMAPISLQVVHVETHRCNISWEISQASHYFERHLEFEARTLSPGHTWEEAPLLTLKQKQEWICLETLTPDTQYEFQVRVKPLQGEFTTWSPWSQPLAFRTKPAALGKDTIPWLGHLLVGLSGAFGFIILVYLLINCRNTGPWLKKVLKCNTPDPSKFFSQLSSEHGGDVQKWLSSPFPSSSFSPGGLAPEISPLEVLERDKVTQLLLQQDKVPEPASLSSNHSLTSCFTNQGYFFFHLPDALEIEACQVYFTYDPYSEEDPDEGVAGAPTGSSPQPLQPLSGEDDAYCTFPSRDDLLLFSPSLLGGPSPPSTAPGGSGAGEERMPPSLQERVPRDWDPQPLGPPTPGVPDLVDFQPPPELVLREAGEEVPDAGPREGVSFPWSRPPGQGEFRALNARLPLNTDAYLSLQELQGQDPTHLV
Sequence of human IL-2 receptor (IL-2Rα, IL-2Rβ, IL-2Rγ) (human) (P31785 23-369, chain 3 of 3, further chain): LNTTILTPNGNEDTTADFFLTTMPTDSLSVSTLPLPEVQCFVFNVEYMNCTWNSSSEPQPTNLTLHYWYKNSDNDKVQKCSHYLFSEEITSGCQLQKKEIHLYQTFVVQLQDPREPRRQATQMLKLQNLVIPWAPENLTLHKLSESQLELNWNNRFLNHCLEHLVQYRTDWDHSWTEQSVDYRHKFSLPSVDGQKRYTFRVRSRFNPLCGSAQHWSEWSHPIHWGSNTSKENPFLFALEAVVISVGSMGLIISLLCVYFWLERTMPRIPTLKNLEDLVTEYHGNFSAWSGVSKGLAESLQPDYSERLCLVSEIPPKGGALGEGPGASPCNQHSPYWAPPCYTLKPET

B1: Fab-Fc-IL-2 mutant-CD3 Ab (protein, part only; not given: constant regions and IL-2 junction, not shown: a dimerising Fc or GST)
light: EIVMTQSPGTLSLSPGESATLSCSASLSVSFMHWFQQKPGHAPRLLIYRTSNLASGVPDRFSGSGSGTDFTLTISRLEPEDFAVYYCQQRSSDPPTFGQGTRLEIKRTVAAPSVFIFPPSDEQLKSGTASVVCLLNNFYPREAKVQWKVDNALQSGNSQESVTEQDSKDSTYSLSSTLTLSKADYEKHKVYACEVTHQGLSSPVTKSFNRGEC
heavy, part 1: EVQLVESGGGLVQPGRSLRLSCTASGFTFSYFWMNWVRQAPGKGLEWVGEIRLRSDNYATHYAESVKGRFTISRDDSKSIAYLQMNSLKTEDTALYYCTRDWEFTYWGQGTTVTVSSAS
heavy, part 2: EVQLVESGGGLVQPGRSLRLSCTASGFTFSYFWMNWVRQAPGKGLEWVGEIRLRSDNYATHYAESVKGRFTISRDDSKSIAYLQMNSLKTEDTALYYCTRDWEFTYWGQGTTVTVSSASAPTSSSTKKTQLQLEHLLLDLQMILNGINNYKNPKLTDMLTFEFYMPKKATELKHLQCLERELKPLEEVLNLAQSKNFHLRPRDLISNINVIVLELKGSETTFMCEYADETATIVEFLNRWITFCQSIISTLT
Molecule B1 gave a Percent T-cell proliferation (PBMC proliferation assay) of 52%.
